Measurements reported in WO2008140316A1.

Target: human CD40 receptor on monocytes (human) (UniProt P25942)
Experiment: cell-based or functional assay

UniProt P25942, sequence (P25942 21-277): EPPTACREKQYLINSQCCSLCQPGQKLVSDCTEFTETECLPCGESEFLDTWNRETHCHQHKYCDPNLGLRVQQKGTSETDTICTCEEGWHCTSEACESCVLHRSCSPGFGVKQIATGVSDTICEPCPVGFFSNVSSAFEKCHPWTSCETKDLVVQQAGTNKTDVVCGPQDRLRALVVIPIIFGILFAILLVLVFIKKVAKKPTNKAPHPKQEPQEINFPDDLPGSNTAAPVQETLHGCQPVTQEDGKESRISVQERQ

clone 64 (agonist anti-human CD40 monoclonal antibody, PanGenetics, The Netherlands)
IL-1β (pg/mL), Clone 64+IFN-γ, MDS CD14+ cells (Table 3): 18 pg/mL | IL-1β (pg/mL), Clone 64+IFN-γ, donor CD14+ cells (Table 3): 13 pg/mL | IL-6 (pg/mL), Clone 64+IFN-γ, MDS CD14+ cells (Table 3): 1210 pg/mL | IL-6 (pg/mL), Clone 64+IFN-γ, donor CD14+ cells (Table 3): 1490 pg/mL | IL-10 (pg/mL), Clone 64+IFN-γ, MDS CD14+ cells (Table 3): 1650 pg/mL | IL-10 (pg/mL), Clone 64+IFN-γ, donor CD14+ cells (Table 3): 1170 pg/mL | TNF-α (pg/mL), Clone 64+IFN-γ, MDS CD14+ cells (Table 3): 293 pg/mL | TNF-α (pg/mL), Clone 64+IFN-γ, donor CD14+ cells (Table 3): 52 pg/mL | TNF-α production by CD14+ monocytes from MDS patients, clone 64 + IFN-γ, 24 h, ELISA: 449 pg/mL | TNF-α production by CD14+ monocytes from normal controls, clone 64 + IFN-γ, 24 h, ELISA: 67 pg/mL
